Patent publication US10144929B2, “Polypeptide inhibitors of Smad3 polypeptide activities” (Mayo Foundation for Medical Education and Research, priority 2016, dated 2018)
No end group written: not given here.

Target: T1, pSmad3 (Mus musculus, UniProt Q8BUN5)
T1 construct: endogenous in cells; host or cells: AKR-2B cells
Test: Nuclear import of pSmad3 (nuclear fractions Western, immunofluorescence) in AKR-2B cells
Format: cell-based
Settings: 90 minutes transduction, TGFβ 5 ng/mL 1 hour
Description: FIGS. 1A-C. SH3 domain of sorting nexin 9 (SNX9) specifically binds pSmad3 and prevents nuclear import. (A) Cartoon depicting domains in full length (FL) SNX9 and constructs used for GST pull down assays. Lysates from AKR-2B cells untreated (−) or stimulated (+) for 45 minutes with 5 ng/mL TGFβ were incubated with GST beads or the indicated fusion polypeptides immobilized on GST beads. Bound polypeptides were eluted and assessed by Western analysis for pSmad3 or pSmad2. Cell lysate reflects signal obtained from 10 μg total protein. (B) AKR-2B cells were transduced for 90 minutes with the indicated concentrations of the TAT-SNX9(SH3) fusion polypeptides. […] Quantitation of nuclear pSmads was performed with Image J software and represents the mean+/−sd of two experiments (Right). […] Quantitation of nuclear Smad3 from 30 cells in each of two experiments (Right).
FIGS. 3A-E. Inhibition of Smad3 signaling by a defined region of the SH3 domain in SNX9. […] (B) Nuclear fractions were prepared and assessed as in FIG. 1B following transduction with the indicated TAT-SNX9(SH3) fusion polypeptide (Left). Quantitation (mean+/−sd) of nuclear pSmad2 or pSmad3 from 2 experiments (Right). (C) Immunofluorescence of nuclear Smad3 was determined as in FIG. 1C from 30 cells in each of two experiments in the absence (−) or presence (+) of 5 ng/mL TGFβ and the indicated TAT-SNX9(SH3) fusion polypeptide (1.5 μM). […]

T1 sequence (Q8BUN5 whole entry): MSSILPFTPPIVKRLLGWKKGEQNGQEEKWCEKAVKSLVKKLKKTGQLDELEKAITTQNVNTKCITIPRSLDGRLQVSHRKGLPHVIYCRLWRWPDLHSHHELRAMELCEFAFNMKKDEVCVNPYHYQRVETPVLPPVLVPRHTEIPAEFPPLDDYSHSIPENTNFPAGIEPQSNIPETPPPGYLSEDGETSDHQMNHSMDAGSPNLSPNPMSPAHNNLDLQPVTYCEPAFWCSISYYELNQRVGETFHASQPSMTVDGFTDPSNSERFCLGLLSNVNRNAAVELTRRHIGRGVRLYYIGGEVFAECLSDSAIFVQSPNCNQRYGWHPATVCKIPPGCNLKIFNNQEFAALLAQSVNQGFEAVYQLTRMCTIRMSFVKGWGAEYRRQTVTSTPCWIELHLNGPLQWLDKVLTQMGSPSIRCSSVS

Substance: TAT-containing polypeptide encoding amino acids 27-42 of SNX9: 16 mer TAT-SNX9(SH3) fusion polypeptide, SNX9 amino acids 27-42; probably SH3-2-2 (SEQ ID NO:34) (IITITNPDVGGGWLEG; also: TAT cell-penetrating peptide fusion; UniProt Q9Y5X1 27-42, looked up, fragment)
- nuclear import of pSmad3: activity similar to that obtained with SB431542
